Results taken from the supplement of paper PMC10126150.
± gives the standard deviation of the averaged measurements.

The sequences below were run on ATP (assay: switch fluorescence ratio, 500 uM ATP over buffer (Cy3 cluster intensity, sum of 5 cycles each) (fold (ratio)); higher = stronger signal-on switching upon ATP binding; sequences stand for … in TCGTCGGCAGCGTCAGATGTGTATAAGAGACAGTTTTTTTTTTTTTTTTTTTTTTTTT…TC). Details: aptamer strand: ATP DNA aptamer (quencher-CACCTGGGGGAGTATTGCGGAGGAAGG + anchor), 100 nM annealed; ATP concentration: 500 uM.
Summary of the method: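 The quencher-labelled ATP aptamer, at 100 nM, was annealed to Cy3-labelled switching-strand clusters on a modified Illumina MiSeq flow-cell. The clusters were imaged in selection buffer, then after 15 min with 500 uM ATP at 22 °C, and this buffer/ATP cycle ran five times with NaOH stripping and re-annealing between runs. Per-cluster fluorescence ratios, summed target-cycle over summed buffer-cycle Cy3 intensity, were averaged per switch-domain sequence. Clusters outside 100-1000 RFU were excluded.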
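Also: ATP exposure 15 min at 22 °C before imaging.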

Row | Sequence | switch fluorescence ratio
1 | CCGGGTGTGG | 1.03 ± 0.028
2 | TCCCTGTTTT | 0.991 ± 0.016
3 | GGCAGTCCGG | 0.9876 ± 0.0024
4 | ACGCGGGGGT | 1.07 ± 0.069
5 | GGGTTTACTG | 1 ± 0.022
6 | TCATTAGCCT | 1.08 ± 0.019
7 | CATCGCTATG | 1.096 ± 0.0097
8 | TTATGGCTTC | 0.993 ± 0.029
9 | CATCGGTGTG | 0.958 ± 0.047
10 | TTGGGTGATC | 1.01 ± 0.049
11 | TTGGGTGCTG | 1.01 ± 0.032
12 | GTTTGTATTT | 1 ± 0.017
13 | TTGTTACTCG | 0.976 ± 0.048
14 | CCTAGTTTTT | 0.997 ± 0.023
15 | TTTTCACTGG | 1.01 ± 0.017
16 | AGTTGAATTG | 0.994 ± 0.022
17 | TTTTTGCTTT | 1.06 ± 0.099
18 | CTATAACGGG | 0.981 ± 0.0067
19 | ACGAACGATC | 1.35 ± 0.022
20 | CTAAGGTTGG | 0.974 ± 0.034
21 | AATTTTAGCT | 1.008 ± 0.0066
22 | TAATAATTAA | 0.992 ± 0.024
23 | TTTTTAAGGT | 1 ± 0.015
24 | GGGTGTATTT | 1.02 ± 0.011
25 | GCAGCAAAAG | 1.029 ± 0.0029

Row | Sequence | switch fluorescence ratio
26 | TAAAAATTGC | 1.02 ± 0.048
27 | AGGGAGGAGG | 0.971 ± 0.024
28 | CCGGGGGTCA | 1.01 ± 0.039
29 | TATGGTTG | 0.99 ± 0.057
30 | TAGGGGAGCT | 0.974 ± 0.067
31 | TTAATTTCAG | 1.01 ± 0.023
32 | AATGTAGGAC | 1.018 ± 0.0026
33 | GTTTTGAATT | 1 ± 0.04
34 | TATTTTTCGG | 0.984 ± 0.041
35 | AAATTAAAAG | 0.984 ± 0.031
36 | TGGTGGGGTG | 0.986 ± 0.012
37 | AGGGTAAACT | 1.27 ± 0.37
38 | CATTGTTGAG | 1.01 ± 0.049
39 | GGAAGGAGAT | 1.003 ± 0.0093
40 | GTGTGGGATC | 1.013 ± 0.0039
41 | TTGTGTGTAG | 1.04 ± 0.033
42 | AGGTACTCGA | 1.05 ± 0.02
43 | GGGGTTCGGG | 0.992 ± 0.017
44 | CGGGGAGGTA | 0.9803 ± 0.0049
45 | TTTCGGTTAA | 1.09 ± 0.11
46 | CGGGGAGGGT | 0.967 ± 0.015
47 | GAGGCTGTAT | 1 ± 0.011
48 | TTGGTGGGGA | 0.987 ± 0.042
49 | AGGGTGCTGT | 1.02 ± 0.016
50 | TTTGGCTTAA | 0.9962 ± 0.006

Row | Sequence | switch fluorescence ratio
51 | CGTTAAGTGG | 0.973 ± 0.04
52 | TCAATCTGGG | 1.006 ± 0.0066
53 | GCTAAAACAG | 0.985 ± 0.026
54 | TGAGCAGCGG | 1.01 ± 0.044
55 | AATTAGGCGG | 1.02 ± 0.02
56 | GAACATCTCG | 0.993 ± 0.035
57 | TTTGTACTTC | 1.02 ± 0.049
58 | AAAGATAGGC | 0.954 ± 0.072
59 | TGAGGGTTGG | 1.01 ± 0.027
60 | TTGGCTCTTT | 1.01 ± 0.02
61 | GGCATTAGGT | 0.977 ± 0.042
62 | GGGGACGAAA | 0.997 ± 0.013
63 | AACCAGTGAT | 1.05 ± 0.017
64 | GAGGGACTAA | 0.9972 ± 0.0095
65 | GACGCGGGTC | 1.13 ± 0.026
66 | AAATGGTATC | 1.01 ± 0.028
67 | CAGTATCGGA | 0.9814 ± 0.008
68 | ATTGGAGGAT | 0.96195 ± 0.0005
69 | GCCCACGGGA | 1.07 ± 0.039
70 | AGAGATGGGG | 0.996 ± 0.022
71 | ATTAGGGAGC | 0.989 ± 0.011
72 | TTTCTGTGGA | 0.9892 ± 0.0091
73 | TTTTTCGCTT | 1.06 ± 0.077
74 | CGCGAGGATG | 1.022 ± 0.0099
75 | AGCCAGGGGG | 1.03 ± 0.043

Row | Sequence | switch fluorescence ratio
76 | TTTTGTTTCG | 1.01 ± 0.028
77 | CCCGGCGAGT | 1.08 ± 0.038
78 | TCCATTCATA | 1.01 ± 0.023
79 | AGTGGTGGAG | 1 ± 0.04
80 | AACTAGTCAA | 1.015 ± 0.0081
81 | TTGGGCGACG | 1.036 ± 0.0032
82 | TCGAGTATTC | 1.04 ± 0.013
83 | GAACGGCATG | 1.04 ± 0.015
84 | GTGGTTCTTG | 0.99 ± 0.019
85 | TTTTGGCAAC | 1.04 ± 0.079
86 | TAATATTTT | 0.966 ± 0.035
87 | AACGACTATG | 1.05 ± 0.029
88 | AAGGTCCATG | 0.9631 ± 0.0013
89 | GCGTTGGGAC | 1.042 ± 0.0036
90 | GGAGGGACGG | 1.029 ± 0.009
91 | TCTTGATGGA | 0.9597 ± 0.0014
92 | CGCTGACAAG | 0.9916 ± 0.0099
93 | CGGTGATATT | 1.03 ± 0.052
94 | CCTTCCCGGG | 1.59 ± 0.0072
95 | AGCTCGACGC | 1.19 ± 0.064
96 | TAGAGTTAAG | 0.9747 ± 0.0046
97 | ATGAGGGTTC | 0.981 ± 0.044
98 | GGGGGTACTT | 1 ± 0.03
99 | TTAATTTAG | 0.985 ± 0.027
100 | TGTTAATATT | 0.989 ± 0.018
